Experimental data from patent publication EP1602931A1, “SR-A antagonists” (Universiteit Leiden, priority 2004, dated 2005).
Where two headings read alike, the source gives them in different places. No end group written: not given here.

T1: immobilized, biotinylated, synthetic, truncated SR-AI (Bos taurus, UniProt P21758)
T1 sequence (P21758 1-453): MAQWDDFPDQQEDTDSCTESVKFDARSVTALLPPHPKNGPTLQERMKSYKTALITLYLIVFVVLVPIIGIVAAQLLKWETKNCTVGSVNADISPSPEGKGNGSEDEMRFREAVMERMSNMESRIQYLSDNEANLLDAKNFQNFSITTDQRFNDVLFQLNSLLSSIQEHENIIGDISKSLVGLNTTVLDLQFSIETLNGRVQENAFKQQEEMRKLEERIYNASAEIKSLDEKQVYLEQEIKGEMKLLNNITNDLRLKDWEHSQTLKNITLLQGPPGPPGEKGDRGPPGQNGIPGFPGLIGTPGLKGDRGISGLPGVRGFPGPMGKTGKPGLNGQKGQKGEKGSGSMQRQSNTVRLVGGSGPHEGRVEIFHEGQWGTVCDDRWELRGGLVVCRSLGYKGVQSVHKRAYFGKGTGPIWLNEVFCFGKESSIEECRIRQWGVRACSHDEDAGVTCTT

T2: synthetic biotinylated bovine SR-AI (truncated, comprising the ligand binding pocket) (Bos taurus, UniProt P21758)
T2 sequence (P21758 272-343): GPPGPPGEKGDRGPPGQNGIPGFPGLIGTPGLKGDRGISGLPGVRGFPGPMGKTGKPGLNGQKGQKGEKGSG


Experiments:
[1] = target: T1, immobilized, biotinylated, synthetic, truncated SR-AI; experiment: Competition of selected phage pool binding to immobilized synthetic SR-AI; parameters: species or system bovine
From the text: (§1) All peptides were synthesized on an automated peptide synthesizer (9050 Millipore, MA) using standard Fmoc solid-phase peptide synthesis. Crude peptides were purified on a preparative C8 RP-HPLC column (Altech, Deerfield, IL) using a JASCO PU-980 (Tokyo, Japan). Purified peptides were further characterized by LC-MS in Division of Analytical Biosciences, Leiden University. The purity of the peptide, as checked by MALDI-TOF mass spectrometry and RP-HPLC, was at least 70%. Lyophilized peptides were stored at -20°C under nitrogen until further use. Synthetic biotinylated bovine SR-AI was synthesized, purified and characterised as described by Suzuki et al. (Suzuki et al., 1999).
In analogy to the phage selection procedure, 10 µg/ml of streptavidin in coating buffer was incubated overnight at 4°C in a high-binding 96-well plate at 100 µl/well. Wells were washed 3x with assay buffer and incubated for 1 h at 37°C with blocking buffer. Next, wells were incubated for 2h at 37°C with 125 nM biotininylated SR-AI binding peptide (100 µl/well), washed 3x with binding buffer, after which the SR-AI ligands or synthetic SR-AI binding peptides (7, 9, 11, 13, 15 a. a.) were added and the solution (100 µl) was left to incubate for 2h at RT with the enriched phage pool (round 7) at 10^8 cfu. Wells were washed 10x with binding buffer, binding phage were eluted by incubation for 5 min at RT with 100 µl elution buffer, and neutralized with 50 µl neutralization buffer (1M Tris-HCI, pH 8.5). Residual phage binding was calculated from the output ratio.

[2] = target: T2, synthetic biotinylated bovine SR-AI (truncated, comprising the ligand binding pocket); experiment: Competition of enriched phage pool binding to immobilized biotinylated synthetic SR-AI; conditions: displacement of enriched phage pool (round 7, 10^8 cfu) from streptavidin-immobilized biotinylated SR-AI peptide; 0-300 µm peptide; 2h at RT; calculated from displacement curves
From the text: as §1
10 µg/ml of streptavidin in coating buffer (50 mM NaHC03, pH 9.6) was incubated overnight at 4°C in a high binding 96 well plate (Costar, Coming, UK) at 100 µl/well. Subsequently, wells were washed with assay buffer (20 mM HEPES, 150 mM NaCl, 1mM CaCl2, pH 7.4) and incubated for 1 hour at 37°C with blocking buffer (3% BSA in assay buffer). […]
In analogy to the phage selection procedure, 10 µg/ml of streptavidin in coating buffer was incubated overnight at 4°C in a high-binding 96-well plate at 100 µl/well. […] Residual phage binding was calculated from the output ratio.

[3] = target: Synthetic biotinylated bovine SR-AI (synthetic, truncated SR-AI comprising the ligand binding pocket) (bovine) (UniProt P21758); experiment: competition of selective phage pool binding to immobilized biotinylated SR-AI by suc-HSA
[4] = target: Synthetic biotinylated bovine SR-AI (synthetic, truncated SR-AI comprising the ligand binding pocket) (bovine) (UniProt P21758); experiment: competition of enriched phage pool binding to immobilized biotinylated SR-AI peptide by synthetic peptide
[5] = target: Synthetic biotinylated bovine SR-AI (synthetic, truncated SR-AI comprising the ligand binding pocket) (bovine) (UniProt P21758); experiment: competition of enriched phage pool binding to immobilized biotinylated SR-AI; IC50 against that of poly I
[6] = target: Synthetic biotinylated bovine SR-AI (synthetic, truncated SR-AI comprising the ligand binding pocket) (bovine) (UniProt P21758); experiment: competition of enriched phage pool binding to immobilized biotinylated SR-AI peptide by synthetic peptide; remark: listed apart in the source
[7] = synthetic peptides (0-300 µM) competing with binding of enriched phage pool (round 7) to biotinylated SR-AI peptide, calculated from displacement curves, three independent experiments

IC50 [1, 7] | IC50 [4] | further results | Molecule
72.3 µM | – | – | LERFLRCWSDAPA [LERFLRCWSDAPA]
29.1 µM | – | IC50 [1]: 28.3 µM | LSLERFLRCWSDAPA [PP1, LSLERFLRCWSDAPA]
– | – | IC50 [2]: 29 µM | LSLERFLRCWSDAPA [PP1]
80.9 µM | – | – | RFLRCWSDAPA [RFLRCWSDAPA]
– | – | IC50 [3]: 66 µg/mL | Succinylated human serum albumin (from UniProt P02768 25-609) (ligand)
– | 217 µM | – | CWSDAPA [PP1-7 (CWSDAPA)]
– | – | fold less potent than poly I [5]: 5 fold; IC50 [6]: 50 µg/mL | LSLERFLRCWSDAPA [PP1 (…), synthetic full-length peptide]
– | 80.9 µM | – | RFLRCWSDAPA [PP1-11 (…)]
– | 72.3 µM | – | LERFLRCWSDAPA [PP1-13 (…)]
